Experimental findings from paper PMC5042579 are described below.

One test has as its target GFP-EB1 (human) (human) (UniProt Q15691). Description: TIRF microscopy of reconstituted dynamic microtubules.
Test [1] deals with microtubules of tubulin purified from bovine brain (bovine) (UniProt Q6B856). The experiment in a line: co-sedimentation. The conditions noted are these: scale: molecule per 100 dimers of polymerized tubulin.
Test [2] concerns the target biotinylated EB1 (mouse end-binding protein 1) (mouse) (UniProt Q61166). Description: pull-down.

Sequence of biotinylated EB1 (mouse end-binding protein 1) (mouse) (Q61166 whole entry): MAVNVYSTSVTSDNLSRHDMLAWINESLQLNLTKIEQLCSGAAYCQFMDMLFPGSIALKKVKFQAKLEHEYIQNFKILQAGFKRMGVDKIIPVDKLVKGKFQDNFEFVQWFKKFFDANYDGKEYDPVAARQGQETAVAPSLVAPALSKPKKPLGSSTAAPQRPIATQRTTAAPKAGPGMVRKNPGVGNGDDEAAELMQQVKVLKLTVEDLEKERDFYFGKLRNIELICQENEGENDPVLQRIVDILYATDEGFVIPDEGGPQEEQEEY
Sequence of GFP-EB1 (human) (human) (Q15691 whole entry): as the sequence (Q61166 whole entry) above, with E123D, S147N, G154T, T157S, A165S, T170A, M179V, K201N counted along it

As for “P2R′-tau (tau fragment from P2 to R′) (from UniProt P10636-7 169-371) (domain or fragment)”, the GFP-EB1 comet intensity at microtubule ends with 75 nM tau protein in the test with GFP-EB1 (human) (human) came to 7 a.u.

The substance “S262E-tau (phosphomimetic tau, serine 262 replaced by glutamate) (natural protein)” showed a tau molecules bound per 100 dimers of polymerized tubulin in test [1] of 1. In test [2], the percent bound to EB1 compared with tau worked out at 50.1%.
